The results in this text go back to EP4663661A1 (Hainan Simcere Zaiming Pharmaceutical Co., Ltd., dated 2025).

Usually EC50 stands for the concentration that produces a half-maximal response. The low end stands for a more potent agent, the high end for a less potent agent.

Assay [1] concerns the target murine CDH6 protein (mCDH6 ECD-his) (mouse) (UniProt P97326). Put plainly: ELISA, antigen coated.
Assay [2] has as its target human CDH6 with EC4 removed, on HEK293T cells (HEK293T-hCDH6-EC4 deletion) (human) (UniProt P55285). Nature of the assay: FACS, HEK293T-hCDH6-EC4 deletion cells.
Assay [3] deals with human CDH6 with EC2 removed, on HEK293T cells (HEK293T-hCDH6-EC2 deletion) (human) (UniProt P55285). Nature of the assay: FACS, HEK293T-hCDH6-EC2 deletion cells. On the technique in general: Flow cytometry measures light scatter and fluorescence of single cells or particles in a stream.
Assay [4] has as its target human CDH6 with EC3 removed, on HEK293T cells (HEK293T-hCDH6-EC3 deletion) (human) (UniProt P55285). Put plainly: FACS, HEK293T-hCDH6-EC3 deletion cells.
Assay [5] deals with human CDH6 with EC1 removed, on HEK293T cells (HEK293T-hCDH6-EC1 deletion) (human) (UniProt P55285). Nature of the assay: FACS, HEK293T-hCDH6-EC1 deletion cells.
Assay [6] concerns the target human CDH6 with EC5 removed, on HEK293T cells (HEK293T-hCDH6-EC5 deletion) (human) (UniProt P55285). Put plainly: FACS, HEK293T-hCDH6-EC5 deletion cells.
Assay [7] deals with T1, his-tagged human CDH6 extracellular region protein (hCDH6 ECD-his) (human, UniProt P55285 54-615).
T1 construct: also called hCDH6-his; Human CDH6-his; not shown: his tag
T1 sequence: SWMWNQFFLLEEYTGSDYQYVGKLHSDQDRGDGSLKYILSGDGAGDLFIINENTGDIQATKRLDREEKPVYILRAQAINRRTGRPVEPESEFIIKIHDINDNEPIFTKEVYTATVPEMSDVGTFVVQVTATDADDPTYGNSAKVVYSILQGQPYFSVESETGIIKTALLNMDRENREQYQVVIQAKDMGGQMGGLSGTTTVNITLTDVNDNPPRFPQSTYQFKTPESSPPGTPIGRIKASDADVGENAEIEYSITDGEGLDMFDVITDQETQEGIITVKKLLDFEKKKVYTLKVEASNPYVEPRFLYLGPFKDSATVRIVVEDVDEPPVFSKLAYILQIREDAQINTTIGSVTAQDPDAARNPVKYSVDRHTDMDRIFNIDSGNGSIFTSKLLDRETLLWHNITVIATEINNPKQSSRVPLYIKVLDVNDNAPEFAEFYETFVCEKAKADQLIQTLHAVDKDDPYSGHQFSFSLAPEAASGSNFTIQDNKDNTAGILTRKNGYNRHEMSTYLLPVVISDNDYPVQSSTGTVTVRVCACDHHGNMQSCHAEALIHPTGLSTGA
Put plainly: ELISA, antigen coated. (In general: An ELISA detects its analyte on a solid surface through an enzyme-linked reagent.)

Assay [8] addresses T1, his-tagged human CDH6 extracellular …. Put plainly: ELISA, antigen coated. This is another data set of the same source.

Read-outs that look alike come from different tables or passages of the source.

Chain of murine CDH6 protein (mCDH6 ECD-his) (mouse) (P97326 19-615 limits assumed, form in doubt): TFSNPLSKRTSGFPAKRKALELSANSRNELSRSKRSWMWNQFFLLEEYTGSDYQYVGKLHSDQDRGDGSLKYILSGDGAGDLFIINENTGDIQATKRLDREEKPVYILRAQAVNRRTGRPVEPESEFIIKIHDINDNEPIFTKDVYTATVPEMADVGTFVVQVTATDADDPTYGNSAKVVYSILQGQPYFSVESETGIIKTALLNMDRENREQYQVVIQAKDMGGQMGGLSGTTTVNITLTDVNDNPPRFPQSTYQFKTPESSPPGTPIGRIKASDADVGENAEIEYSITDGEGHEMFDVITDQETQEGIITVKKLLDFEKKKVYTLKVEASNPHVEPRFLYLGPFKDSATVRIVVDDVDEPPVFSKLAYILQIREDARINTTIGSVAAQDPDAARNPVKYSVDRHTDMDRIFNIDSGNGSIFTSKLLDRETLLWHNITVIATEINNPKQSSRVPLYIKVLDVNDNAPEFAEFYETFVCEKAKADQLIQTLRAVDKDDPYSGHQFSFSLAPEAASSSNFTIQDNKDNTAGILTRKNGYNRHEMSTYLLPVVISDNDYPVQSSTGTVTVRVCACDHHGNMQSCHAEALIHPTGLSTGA

B1: CHI-CDH6-14 (antibody, human IgG1, kappa, V domains shown)
VH: QIQLQQSGPELVKPGTSVKISCKASGYTFTDNYINWVRQRPGQGLEWIGWIYPGTGNSYYNEKFKGKATLTVDTSSSTAYMQFSSLTSEDSAVYLCASSYGDSFDYWGQGTTLTVSS
VL: DIQMTQTTSSLSASLGNRVTISCRASQDIRNYLNWYQQKPDGTFKLLISYTSRLHSGVPSRFSGSGSGTDYSLTVSNLEPEDIATYYCQQYSQLPWTFGGGSRLEIKR
notes: also called CHI- hCDH6-14
B1 came in with an EC50 in assay [1] of 0.049 nM. Besides, the Max OD450 in assay [1] was 2.48 OD450; in assay [7], 2.5 OD450; in assay [8], 2.65 OD450. Also, the Max MFI in assay [2] was found to be 26600 MFI; in assay [3], 814 MFI; in assay [4], 755 MFI; in assay [5], 7210 MFI; in assay [6], 4040 MFI.
